Where two headings read alike, the source gives them in different places.

In assay [1] the target is T1, KRAS G12D peptide on HLA-A*11:01 (human).
T1 peptide: VVVGADGVGK
As to the kind of experiment: CD137 by flow cytometry; transduced primary CD4+ and CD8+ T cells, TRAC/TRBC wild type; G12D peptide titrated (FIG. 3C); full-length, on cells. On the procedure: (§1) Primary CD4+ and CD8+ T cells were transduced with a KRAS-G12D-specific T cell receptor (TCR69, TCR79, TCR80, TCR81, or TCR91), and were either edited to knockout TRAC and TRBC or left with unmodified TRAC and TRBC genes, and expanded for several days. Engineered T cells were incubated with G12D peptide at decreasing concentrations and T cell responses were assessed by measuring CD137 expression.
(§2) In additional experiments, the effect of TRAC and TRBC knockout was evaluated for primary CD4+ and CD8+ T cells transduced with further KRAS-G12D-specific TCRs. The double knockout improved TCR avidity for multiple TCRs as shown in FIG. 3C (corresponding EC50 values in TABLE 2 and Cmax values in TABLE 3), FIG. 3D (corresponding EC50 values in TABLE 4), and FIG. 3E (corresponding EC50 values in TABLE 5).
A general note: Flow cytometry measures light scatter and fluorescence of single cells or particles in a stream.

The target in assay [2] is T1, KRAS G12D peptide on HLA-A*11:01. In words: CD137 by flow cytometry; transduced primary CD4+ and CD8+ T cells, TRAC/TRBC wild type; G12D peptide titrated (FIG. 3D); full-length, on cells. How it is done:
as §1, §2

Assay [3] has the same target. In words: CD137 by flow cytometry; transduced primary CD4+ and CD8+ T cells, TRAC/TRBC wild type; G12D peptide titrated (FIG. 3E); full-length, on cells. On the procedure: as §1, §2
The target is the same in assay [4]. As to the kind of experiment: CD137 by flow cytometry; transduced primary CD4+ and CD8+ T cells, TRAC/TRBC double knockout; G12D peptide titrated (FIG. 3C); full-length, on cells. On the procedure:
as §1, §2

For assay [5] the target is unchanged. In words: CD137 by flow cytometry; transduced primary CD4+ and CD8+ T cells, TRAC/TRBC double knockout; G12D peptide titrated (FIG. 3D); full-length, on cells. On the procedure:
as §1, §2

Assay [6] shares this target. As to the kind of experiment: CD137 by flow cytometry; transduced primary CD4+ and CD8+ T cells, TRAC/TRBC double knockout; G12D peptide titrated (FIG. 3E); full-length, on cells. On the procedure: as §1, §2
The target is the same in assay [7]. In words: CD137 by flow cytometry; transduced primary CD4+ and CD8+ T cells without knockout of TRAC and TRBC; G12D peptide titrated (FIG. 3C); full-length, on cells. How it is done: as §1, §2
Assay [8] has the same target. In words: activation reporter or marker.
Assay [9] concerns the target T2, KRAS G12D mutant peptide presented by HLA-A*11:01 on cells (human). As to the kind of experiment: cell-based or functional assay.
Assay [10] has as its target T2, KRAS G12D mutant peptide presented by …. As to the kind of experiment: cell-based or functional assay. The source holds these as a separate data set.

B1: TCR4 (TCR, V domains shown)
Valpha: QKEVEQDPGPLSVPEGAIVSLNCTYSNSAFQYFMWYRQYSRKGPELLMYTYSSGNKEDGRFTAQVDKSSKYISLFIRDSQPSDSATYLCAMGALNSGAGSYQLTFGKGTKLSVIP
Vbeta: KAGVTQTPRYLIKTRGQQVTLSCSPISGHRSVSWYQQTPGQGLQFLFEYFSETQRNKGNFPGRFSGRQFSNSRSEMNVSTLELGDSALYLCASSLSSGTGTEAFFGQGTRLTVE
Regarding B1, the EC50 of peptide in assay [1] came out at 49.8 nM; in assay [2] it was 31.1 nM; in assay [3] it was 49.8 nM; in [4], 11.8 nM; in assay [5], 4.4 nM; in assay [6] it was 11.8 nM. In assay [7], the Cmax amounted to 16%.

B2: TCR2 (TCR, V domains shown)
Valpha: AQTVTQSQPEMSVQEAETVTLSCTYDTSENNYYLFWYKQPPSRQMILVIRQEAYKQQNATENRFSVNFQKAAKSFSLKISDSQLGDTAMYFCAFMYPSQGGSEKLVFGKGMKLTVNP
Vbeta: ETGVTQSPTHLIKTRGQQVTLRCSSQSGHNTVSWYQQALGQGPQFIFQYYREEENGRGNFPPRFSGLQFPNYSSELNVNALELDDSALYLCASSSPGFRSYGYTFGSGTRLTVV
On to B2, for which the EC50 of peptide in assay [1] is 31.6 nM; in assay [2], 22.2 nM; in assay [3] it was 31.6 nM; in assay [4] it was 10.1 nM; in [5] it was 7.3 nM; in assay [6], 10.1 nM. In assay [7], this molecule gave a Cmax of 42.7%.

B3: TCR5 (TCR, V domains shown)
Valpha: GEDVEQSLFLSVREGDSSVINCTYTDSSSTYLYWYKQEPGAGLQLLTYIFSNMDMKQDQRLTVLLNKKDKHLSLRIADTQTGDSAIYFCAERDAGNNRKLIWGLGTSLAVNP
Vbeta: GAGVSQSPRYKVAKRGQDVALRCDPISGHVSLFWYQQALGQGPEFLTYFQNEAQLDKSGLPSDRFFAERPEGSVSTLKIQRTQQEDSAVYLCASSLEGGDTQYFGPGTRLTVL
As for B3, the EC50 of peptide came out at 36.3 nM in assay [1]; 37.8 nM in assay [2]; 36.3 nM in assay [3]; 7.6 nM in assay [4]; 9.4 nM in assay [5]; 7.6 nM in [6]. Besides, the Cmax in assay [7] was 23.9%.

B4: TCR80 (TCR, V domains shown)
Valpha: AQTVTQSQPEMSVQEAETVTLSCTYDTSESDYYLFWYKQPPSRQMILVIRQEAYKQQNATENRFSVNFQKAAKSFSLKISDSQLGDAAMYFCASTLSSGDKLTFGTGTRLAVRP
Vbeta: EPEVTQTPSHQVTQMGQEVILRCVPISNHLYFYWYRQILGQKVEFLVSFYNNEISEKSEIFDDQFSVERPDGSNFTLKIRSTKLEDSAMYFCASSGVDRAYGYTFGSGTRLTVV
With B4, the binding result in assay [8] is reported as “recognises”.

B5: TCR91 (TCR, V domains shown)
Valpha: AQKVTQAQTEISVVEKEDVTLDCVYETRDTTYYLFWYKQPPSGELVFLIRRNSFDEQNEISGRYSWNFQKSTSSFNFTITASQVVDSAVYFCALNEGGGSTLGRLYFGRGTQLTVWP
Vbeta: DAMVIQNPRYQVTQFGKPVTLSCSQTLNHNVMYWYQQKSSQAPKLLFHYYDKDFNNEADTPDNFQSRRPNTSFCFLDIRSPGLGDAAMYLCATSTGRVYQPQHFGDGTRLSIL
As to B5, the EC50 of peptide is 131 nM in assay [1]; 179 nM in assay [2]; 131 nM in assay [3]; 36.5 nM in [4]; 14.4 nM in assay [5]; 36.5 nM in [6]. The same molecule yielded a Cmax in assay [7] of 14.4%.

B6: TCR6 (TCR)
TCR alpha: GQQLNQSPQSMFIQEGEDVSMNCTSSSIFNTWLWYKQDPGEGPVLLIALYKAGELTSNGRLTAQFGITRKDSFLNISASIPSDVGIYFCAGRREGAQKLVFGQGTRLTINPNIQNPDPAVYQLRDSKSSDKSVCLFTDFDSQTNVSQSKDSDVYITDKCVLDMRSMDFKSNSAVAWSNKSDFACANAFNNSIIPEDTFFPSPESSCDVKLVEKSFETDTNLNFQNLSVIGFRILLLKVAGFNLLMTLRLWSS
TCR beta: GAGVSQSPRYKVAKRGQDVALRCDPISGHVSLFWYQQALGQGPEFLTYFQNEAQLDKSGLPSDRFFAERPEGSVSTLKIQRTQQEDSAVYLCASSSTLMGVNIQYFGAGTRLSVLEDLKNVFPPEVAVFEPSEAEISHTQKATLVCLATGFYPDHVELSWWVNGKEVHSGVCTDPQPLKEQPALNDSRYCLSSRLRVSATFWQNPRNHFRCQVQFYGLSENDEWTQDRAKPVTQIVSAEAWGRADCGFTSESYQQGVLSATILYEILLGKATLYAVLVSALVLMAMVKRKDSRG
Take B6: the T cell activation EC50 (CD137 vs G12D peptide dose), TRAC/TRBC double knockout T cells in assay [9] came to 14.3 nM; in assay [10], 6.4 nM. Further, the T cell activation EC50 (CD137 vs G12D peptide dose), WT TRAC/TRBC T cells is 24 nM in assay [9] and 12.2 nM in assay [10].

B7: TCR81 (TCR, V domains shown)
Valpha: AQTVTQSQPEMSVQEAETVTLSCTYDTSESDYYLFWYKQPPSRQMILVIRQEAYKQQNATENRFSVNFQKAAKSFSLKISDSQLGDAAMYFCAYCNPNAGKSTFGDGTTLTVKP
Vbeta: DVKVTQSSRYLVKRTGEKVFLECVQDMDHENMFWYRQDPGLGLRLIYFSYDVKMKEKGDIPEGYSVSREKKERFSLILESASTNQTSMYLCASSFRLREGLGEQFFGPGTRLTVL
For the molecule B7, the binding result in [8] was “recognises”.

B8: TCR69 (TCR, V domains shown)
Valpha: TQLLEQSPQFLSIQEGENLTVYCNSSSVFSSLQWYRQEPGEGPVLLVTVVTGGEVKKLKRLTFQFGDARKDSSLHITAAQPGDTGLYLCAGKTTDSWGKLQFGAGTQVVVTP
Vbeta: EPEVTQTPSHQVTQMGQEVILRCVPISNHLYFYWYRQILGQKVEFLVSFYNNEISEKSEIFDDQFSVERPDGSNFTLKIRSTKLEDSAMYFCASSEWAGTEAFFGQGTRLTVV
Consider B8, for which the binding result in assay [8] was “recognises”.

B9: TCR6 (TCR, V domains shown)
Valpha: GQQLNQSPQSMFIQEGEDVSMNCTSSSIFNTWLWYKQDPGEGPVLLIALYKAGELTSNGRLTAQFGITRKDSFLNISASIPSDVGIYFCAGRREGAQKLVFGQGTRLTINP
Vbeta: GAGVSQSPRYKVAKRGQDVALRCDPISGHVSLFWYQQALGQGPEFLTYFQNEAQLDKSGLPSDRFFAERPEGSVSTLKIQRTQQEDSAVYLCASSSTLMGVNIQYFGAGTRLSVL
In the case of B9, the EC50 of peptide in [2] turned out to be 12.2 nM; in assay [3], 24 nM; in assay [5], 6.4 nM; in [6] it was 14.3 nM.

B10: TCR79 (TCR, V domains shown)
Valpha: QKEVEQNSGPLSVPEGAIASLNCTYSDRVSQSFFWYRQYSGKSPELIMSIYSNGDKEDGRFTAQLNKASQYVSLLIRDSQPSDSATYLCAVRWAGGTSYGKLTFGQGTILTVHP
Vbeta: DTGVSQDPRHKITKRGQNVTFRCDPISEHNRLYWYRQTLGQGPEFLTYFQNEAQLEKSRLLSDRFSAERPKGSFSTLEIQRTEQGDSAMYLCATPLGRTNEQFFGPGTRLTVL
For the molecule B10, the binding result in assay [8] is listed as “recognises”.

B11: TCR1 (TCR, V domains shown)
Valpha: GDSVTQMEGPVTLSEEAFLTINCTYTATGYPSLFWYVQYPGEGLQLLLKATKADDKGSNKGFEATYRKETTSFHLEKGSVQVSDSAVYFCALSDRVGGARLMFGDGTQLVVKP
Vbeta: EADIYQTPRYLVIGTGKKITLECSQTMGHDKMYWYQQDPGMELHLIHYSYGVNSTEKGDLSSESTVSRIRTEHFPLTLESARPSHTSQYLCASSEGLYNEQFFGPGTRLTVL
As to B11, the EC50 of peptide in assay [2] amounted to 51.1 nM; in [3] it was 119 nM; in [5], 12.2 nM; in assay [6], 64.1 nM.
